According to US20050048070A1 (published 2005):

Key:
[1] = target: T1, K8(300-483)/intact K18 heterotypic complex; assay: summary map of the heterotypic association assay: GST deletion protein incubated with the complementary keratin, then stained with COU-1
T1 construct: one member of the group m25; not shown: N-terminal GST carrier (modified pGEX-2T) and its linker on the keratin constructs
T1 chain 1: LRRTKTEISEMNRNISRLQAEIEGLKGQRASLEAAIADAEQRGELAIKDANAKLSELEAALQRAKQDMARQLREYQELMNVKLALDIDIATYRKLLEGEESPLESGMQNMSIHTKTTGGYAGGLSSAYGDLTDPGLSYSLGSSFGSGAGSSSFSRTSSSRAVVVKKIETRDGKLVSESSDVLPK
T1 chain 2: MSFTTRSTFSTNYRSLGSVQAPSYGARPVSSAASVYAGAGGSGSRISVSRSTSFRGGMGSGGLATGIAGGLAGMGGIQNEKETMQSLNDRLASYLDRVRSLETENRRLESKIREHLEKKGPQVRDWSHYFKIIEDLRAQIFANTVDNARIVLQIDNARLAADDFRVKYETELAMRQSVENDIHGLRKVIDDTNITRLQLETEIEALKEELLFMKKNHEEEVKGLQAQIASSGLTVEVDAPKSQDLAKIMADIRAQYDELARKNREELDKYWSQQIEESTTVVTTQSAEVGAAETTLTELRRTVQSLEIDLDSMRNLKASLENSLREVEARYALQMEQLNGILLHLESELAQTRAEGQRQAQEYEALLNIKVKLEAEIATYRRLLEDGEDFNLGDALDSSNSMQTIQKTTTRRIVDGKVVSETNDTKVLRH

[2] = target: T2, K8(343-483)/intact K18 heterotypic complex; assay: as above
T2 construct: one member of the group m25; not shown: N-terminal GST carrier (modified pGEX-2T) and its linker on the keratin constructs
T2 chain 1: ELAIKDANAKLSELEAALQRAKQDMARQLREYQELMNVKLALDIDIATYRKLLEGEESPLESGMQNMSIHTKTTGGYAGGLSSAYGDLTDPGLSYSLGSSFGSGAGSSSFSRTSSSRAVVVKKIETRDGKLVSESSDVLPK
T2 chain 2: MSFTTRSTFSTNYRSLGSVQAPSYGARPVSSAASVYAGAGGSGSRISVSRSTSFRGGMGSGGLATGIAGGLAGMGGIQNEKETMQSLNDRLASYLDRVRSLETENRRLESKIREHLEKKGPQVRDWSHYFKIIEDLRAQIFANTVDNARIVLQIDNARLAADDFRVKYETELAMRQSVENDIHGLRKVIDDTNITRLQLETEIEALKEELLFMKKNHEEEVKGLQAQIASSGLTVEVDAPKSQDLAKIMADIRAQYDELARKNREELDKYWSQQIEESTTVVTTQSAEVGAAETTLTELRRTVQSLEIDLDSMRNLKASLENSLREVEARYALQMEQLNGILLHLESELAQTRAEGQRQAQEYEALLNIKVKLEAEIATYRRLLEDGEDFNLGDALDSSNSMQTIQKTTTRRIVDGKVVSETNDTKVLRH

[3] = target: T3, K8(240-483)/intact K18 heterotypic complex; assay: as above
T3 construct: one member of the group m25; not shown: N-terminal GST carrier (modified pGEX-2T) and its linker on the keratin constructs
T3 chain 1: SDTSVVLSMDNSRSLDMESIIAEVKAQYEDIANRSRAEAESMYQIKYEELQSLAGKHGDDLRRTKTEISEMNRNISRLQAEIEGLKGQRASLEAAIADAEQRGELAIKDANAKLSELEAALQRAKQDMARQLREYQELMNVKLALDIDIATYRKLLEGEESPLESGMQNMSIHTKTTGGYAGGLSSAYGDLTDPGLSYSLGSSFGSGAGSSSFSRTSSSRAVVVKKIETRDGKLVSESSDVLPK
T3 chain 2: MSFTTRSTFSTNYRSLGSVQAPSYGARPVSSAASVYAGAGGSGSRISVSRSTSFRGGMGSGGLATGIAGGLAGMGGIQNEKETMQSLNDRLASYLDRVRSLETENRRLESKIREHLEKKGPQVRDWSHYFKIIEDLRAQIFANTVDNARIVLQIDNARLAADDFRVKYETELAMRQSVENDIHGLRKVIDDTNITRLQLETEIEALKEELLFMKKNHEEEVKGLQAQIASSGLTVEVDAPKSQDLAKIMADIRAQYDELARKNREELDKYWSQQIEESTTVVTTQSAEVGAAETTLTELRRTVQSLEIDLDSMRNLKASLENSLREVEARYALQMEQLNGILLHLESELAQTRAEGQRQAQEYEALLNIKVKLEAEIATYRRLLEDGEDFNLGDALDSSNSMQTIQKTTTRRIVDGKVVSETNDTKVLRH

[4] = target: T4, K8(1-85)/intact K18 heterotypic complex (human, UniProt P05787 2-86; P05783 2-430); assay: as above
T4 construct: Heterotypic complex of two GST fusion proteins; also called intact K8(1-85)/intact K18; not shown: glutathione S-transferase (GST) fusion partner, modified pGEX-2T vector
T4 chain 1: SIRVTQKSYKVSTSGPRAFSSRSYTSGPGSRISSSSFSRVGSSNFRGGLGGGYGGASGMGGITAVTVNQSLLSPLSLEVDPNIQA
T4 chain 2: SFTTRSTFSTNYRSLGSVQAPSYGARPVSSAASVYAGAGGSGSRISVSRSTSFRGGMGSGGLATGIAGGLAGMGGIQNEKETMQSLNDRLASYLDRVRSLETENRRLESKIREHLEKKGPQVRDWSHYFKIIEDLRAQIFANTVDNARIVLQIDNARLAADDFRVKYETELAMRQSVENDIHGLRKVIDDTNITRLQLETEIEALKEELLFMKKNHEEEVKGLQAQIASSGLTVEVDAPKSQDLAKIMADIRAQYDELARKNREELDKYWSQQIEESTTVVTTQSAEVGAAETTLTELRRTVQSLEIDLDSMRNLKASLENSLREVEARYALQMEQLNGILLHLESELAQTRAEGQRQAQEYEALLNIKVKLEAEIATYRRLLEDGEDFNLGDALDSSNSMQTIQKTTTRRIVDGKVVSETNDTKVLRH

ovalbumin = target: T5, ovalbumin (UniProt P01012 2-386); assay: ELISA on coated antigens (data not shown)
T5 construct: Irrelevant antigen in the ELISA
T5 sequence (looked up): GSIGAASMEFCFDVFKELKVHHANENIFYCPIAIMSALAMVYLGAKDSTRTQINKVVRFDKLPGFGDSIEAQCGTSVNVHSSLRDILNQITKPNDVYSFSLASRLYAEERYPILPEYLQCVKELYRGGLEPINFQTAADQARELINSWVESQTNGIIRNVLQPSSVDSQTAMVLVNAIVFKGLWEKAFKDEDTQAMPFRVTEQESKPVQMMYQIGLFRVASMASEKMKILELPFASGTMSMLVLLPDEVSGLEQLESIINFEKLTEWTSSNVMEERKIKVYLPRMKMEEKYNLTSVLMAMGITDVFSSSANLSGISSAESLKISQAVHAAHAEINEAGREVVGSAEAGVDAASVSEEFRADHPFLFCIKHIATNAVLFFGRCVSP

bovine serum albumin = target: T6, bovine serum albumin (bovine, UniProt P02769 25-607); assay: ELISA on coated antigens (data not shown)
T6 construct: Irrelevant antigen in the ELISA; also called BSA
T6 sequence (P02769 25-607 limits assumed): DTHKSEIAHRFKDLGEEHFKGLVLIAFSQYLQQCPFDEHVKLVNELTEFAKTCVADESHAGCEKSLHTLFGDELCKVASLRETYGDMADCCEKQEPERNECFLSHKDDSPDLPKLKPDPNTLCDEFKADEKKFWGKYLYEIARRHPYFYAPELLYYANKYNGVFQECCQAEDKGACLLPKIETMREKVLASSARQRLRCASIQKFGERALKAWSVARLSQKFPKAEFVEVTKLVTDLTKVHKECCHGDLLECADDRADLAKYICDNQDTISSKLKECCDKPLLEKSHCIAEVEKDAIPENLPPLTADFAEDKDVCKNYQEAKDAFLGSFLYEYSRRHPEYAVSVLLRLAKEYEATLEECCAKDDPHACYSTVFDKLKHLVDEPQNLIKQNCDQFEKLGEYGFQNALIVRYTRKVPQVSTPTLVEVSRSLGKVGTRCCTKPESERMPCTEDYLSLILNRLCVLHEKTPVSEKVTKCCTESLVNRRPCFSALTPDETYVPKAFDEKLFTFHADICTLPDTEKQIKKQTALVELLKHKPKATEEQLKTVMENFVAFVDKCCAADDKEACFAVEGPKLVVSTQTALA

[5] = target: T7, intact K8, native (band 1 of cytokeratin purified from colon cancer tissue; K8 in fixed cancer cells) (human, UniProt P05787 2-483, N-terminally blocked); assay: strips of a PVDF blot of SDS-PAGE-separated cytokeratin purified from colon cancer tissue
T7 construct: Natural protein, no tag; also called normal K8; cytokeratin 8
T7 chain: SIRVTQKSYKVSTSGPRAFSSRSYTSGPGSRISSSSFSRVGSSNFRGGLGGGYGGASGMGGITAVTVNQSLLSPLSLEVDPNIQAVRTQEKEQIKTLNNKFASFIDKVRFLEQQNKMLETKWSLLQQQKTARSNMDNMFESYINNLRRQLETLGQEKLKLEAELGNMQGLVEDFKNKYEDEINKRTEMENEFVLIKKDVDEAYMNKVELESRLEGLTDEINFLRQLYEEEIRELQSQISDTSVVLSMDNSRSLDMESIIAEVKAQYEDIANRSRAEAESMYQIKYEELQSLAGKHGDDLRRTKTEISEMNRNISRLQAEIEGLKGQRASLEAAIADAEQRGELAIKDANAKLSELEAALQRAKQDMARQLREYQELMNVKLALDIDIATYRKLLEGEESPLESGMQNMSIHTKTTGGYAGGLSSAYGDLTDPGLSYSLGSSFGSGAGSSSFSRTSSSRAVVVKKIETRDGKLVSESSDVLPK

B1: human monoclonal IgM antibody COU-1 (antibody, V domains shown)
VH: GAEVKKPGASVKVSCKASDYTFSSYYMHWVRQAPGQGLEWMGIINPSGGSTSYAQKFQGRVTMTRDTSTNTVYMELSSLRSEDTAVYYCARDQVVVAATLSNYGMDVWGQGTTVTVSS
VL: ELTQSPGTLSLSPGERATLSCRASQSVSSSYLAWYQQKPGQAPRLLIYDASNRATGIPARFSGSGSGTDFTLTISSLEPEDFAVYYCQQGTNWGIAFGQGTRLDIKR
notes: Human IgM with kappa light chain, secreted by hybridoma B9165 (ECACC 87040201), purified from culture supernatant; also called HMab COU-1; HuMab COU-1
binding result [1]: no binding (tested: 5 µg/ml COU-1 (P-0285)) | binding result [2]: no binding (tested: 5 µg/ml COU-1 (P-0285)) | binding result [3]: no binding (tested: 5 µg/ml COU-1 (P-0285)) | binding result [4]: no binding (tested: 5 µg/ml COU-1 (P-0285)) | binding result (ovalbumin): no binding | binding result (bovine serum albumin): no binding | binding result [5]: no binding (tested: 5 µg/ml COU-1 (P-0279))
